Experiment [1] concerns the target T1, Hdm2 210-304 (Homo sapiens, UniProt Q00987).
T1 construct: poly-His (thrombin-cleavable, from pET28a) (cleaved yes); made in house; host or cells: E. coli BL21 (DE3)
As to the kind of experiment: CD-based binding assay, β-strand formation with Hdm2 210-304. Here is the method:
(§1) Spectra were recorded at 25° C. using an Aviv Model 62A DS circular dichroism spectropolarimeter (Aviv Instruments, Inc.) equipped with a thermoelectric temperature control unit. All samples were prepared in 10 mM Tris-HCl, pH 7.0 at 0.02-0.2 mM as determined by amino acid analysis. Spectra were recorded using 1 mm quartz cuveftes and reported spectra are the average of 10 scans over the range […]. Melting experiments were recorded in 10 mm quartz cuvettes with active stirring. The signal at 216 nm (β strand minimum) was used to monitor structural changes and the signal was averaged over 15 sec. The sample temperature was increased in 1° C. steps.
(§2) As discussed above, the addition of mArfN37 to Hdm2 210-304 results in the formation of supramolecular assemblies comprised of β-strands. Stepwise addition of sub-stoichiometric amounts of mArfN37 to Hdm2 210-304 increased β-strand secondary structure content as judged by the change in ellipticity at 200 nm using CD. […] The binding of mArfN37 to Hdm2 210-304, as monitored in this way, is saturable. Similar results were obtained when mArfN37 was mixed with the shorter fragment of Hdm2, Hdm2 210-275. Further, saturable binding is also observed when the Hdm2 fragments were added to an excess of mArfN37. These findings indicate that there are a limited number of binding sites for mArfN37 within Hdm2 210-304 and that discreet structures (containing β-strands) form when mArfN37 and Hdm2 210-304 (or 210-275) are mixed. […] Similar behavior is observed when mArfN37 binds Hdm2 210-275.
To investigate the roles of individual Arf motifs (A1 and A2) and Arf-binding segments of Hdm2 (H1 and H2) in the interactions between Arf and Hdm2 the binding of peptides containing these small segments (A1, A2, H1, or H2) to larger protein fragments of the corresponding binding partner (mArfN37 or Hdm2 210-304) were monitored using the CD-based binding assay. […] Peptides from the Hdm2 library that were positive for mArfN37 binding on the basis of SPR (i.e. those within H1 and H2) were mixed with mArfN37 and binding was monitored in the same manner. Three peptides from the H1 segment and one from the H2 segment of Hdm2 induce β-strand secondary structure when mixed with mArfN37 (FIG. 2c). These experiments indicate that peptides containing A1, A2, H1 or H2 can interact with larger fragments of the target protein and that the interactions also occur through the formation of β-sheet secondary structure. […] Importantly, however, further reduction in the size of the interacting species led to a loss of Arf/Hdm2 binding as judged by a failure to induce structure in CD titration experiments. […] Similarly, while peptides derived from the H1 or H2 segments of Hdm2 bind mArfN37, they fail to bind peptides derived from the A1 or A2 segments of mouse or human Arf. Furthermore, mixtures of two, three, or four different peptides that contain the important binding segments (A1, A2, H1, and H2) fail to interact, in contrast to the results obtained when A1 and A2, or H1 and H2, are covalent linked in larger protein fragments. Apparently, cooperative interactions between covalently linked binding segments from one protein (A1 and A2 of Arf, or H1 and H2 of Hdm2) are minimally required for Arf/Hdm2 interactions.

For experiment [2], the target named is T2, Hdm2 210-275 (Homo sapiens, UniProt Q00987).
T2 construct: poly-His (thrombin-cleavable, from pET28a) (cleaved yes); made in house; host or cells: E. coli BL21 (DE3)
As to the kind of experiment: CD-based binding assay, β-strand formation with Hdm2 210-275. The method, then: as §1, §2

The target of experiment [3] is T3, mArfN37 (Mus musculus, UniProt Q64364).
T3 construct: An N-terminal fragment of mouse p19^Arf corresponding to residues 1-37 (mArfN37) was purified in a similar manner; made in house
T3 sequence (Q64364 1-37 limits assumed): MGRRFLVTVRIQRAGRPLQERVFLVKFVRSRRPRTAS
As to the kind of experiment: SPR binding of Hdm2 constructs and Hdm2 peptides to immobilized His-tagged mArfN37. The method, then:
Binding studies were performed using a Biacore 3000 surface plasmon resonance (SPR) instrument (Biacore, Inc.). A Tetra-His™ Antibody (Qiagen, Inc.; Cat. #34670) was covalently attached to a carboxymethylated gold surface (C-1 chip; Biacore, Inc.). The carboxymethyl groups on the surface were activated with N-ethyl-N′-(3-dimethylaminopropyl) carbodiimide (EDC) and N-hydroxysuccinimide (NHS) and the antibody was attached at pH 7.4 in 20 mM sodium phosphate buffer, 150 mM NaCl (PBS). Reactive sites remaining on the surface were blocked by reaction with ethanolamine. […] Binding was measured by flowing the non-His-tagged analyte through the reference and ligand-containing flow cells in sequence. […] Changes in the SPR response due to solvent differences and the injection process were monitored by injection of HBS-N buffer alone. […]
It has been previously shown that a fragment of mouse p19^Arf containing the N-terminal 37 amino acids (mArfN37) can (i) bind Hdm2, (ii) cause the relocalization of Hdm2 to nucleoli, and (iii) induce cell cycle arrest in MEFs [see, U.S. patent application Ser. No. 09/480,718, Filed Jan. […] However, because mArfN37 is a relatively small polypeptide, it was determined whether it could bind a correspondingly small segment of Hdm2. […]
For orientation: In SPR one partner is held on a chip, and binding of the other changes the refractive index at the surface.

Experiment [4] concerns the target T4, GFP-p19^Arf (Mus musculus, UniProt Q64364).
T4 construct: expressed in transfected cells; host or cells: NIH 3T3 Arf-/- cells
T4 sequence (Q64364 1-169): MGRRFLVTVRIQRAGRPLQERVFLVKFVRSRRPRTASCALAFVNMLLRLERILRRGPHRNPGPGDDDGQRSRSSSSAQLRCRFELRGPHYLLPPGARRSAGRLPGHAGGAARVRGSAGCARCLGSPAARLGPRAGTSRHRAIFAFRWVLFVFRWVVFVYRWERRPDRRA
As to the kind of experiment: Nuclear microinjection and live cell imaging of Texas Red labeled Hdm2 constructs in NIH 3T3 cells lacking Arf. It is filed as cell-based. The note with it: NIH 3T3 Arf-/- cells, nuclear microinjection. Here is the method:
Proteins for fluorescence microimaging studies were covalently modified using an amine-reactive, sulfosuccinimidyl ester of Texas Red™ (Molecular Probes, Inc., Cat. # C-1171). In brief, purified Hdm2-derived proteins were dialyzed into 100 mM sodium bicarbonate buffer, pH 8.3 at 2-4 mg/ml. The Texas Red™ dye was dissolved in dimethylsulfoxide at 10 mg/ml. Protein and dye 3:1 (vol:vol) were reacted for 1 hour at room temperature followed by purification using size-exclusion chromatography (NAP 5 G-25 columns, Amersham Pharmacia Biotech, Inc.). Labeled protein bands migrated more slowly than unlabeled protein in SDS-polyacrylamide gels consistent with the covalent attachment of dye.
NIH 3T3 Arf^−/− cells passage 10-15 were cultured in Dulbecco's modified Eagle's medium (Dulbecco's modified Eagle's medium (DMEM); Gibco-Invitrogen, Inc.), 10% fetal bovine serum (FBS) at 37° C., 7% CO2. 24 hours prior to transfection, cells were plated on 35 mm dishes coated with poly-D-Lysine (Mattek, Corp.) at a density of 3×10^4 cells per dish. Cells were transfected with a pcDNA plasmid (Invitrogen) containing the GFP-p19^ARF fusion protein using Fugene-6 (Roche Molecular Biochemicals, Inc.) in media according to the protocol supplied by the manufacturer. Sixteen hours post-transfection, the transfection media was refreshed with DMEM, 10% FBS and the cells were allowed to recover for four hours. […] An Axiovert 135 TV inverted fluorescence microscope with an automated stage controller (Carl Zeiss, Inc.) and circulating water bath heater (Fisher) was used for both microinjection and imaging. […]
Hdm2 deletion constructs tagged with a fluorescent label (Texas Red™) were microinjected into the nucleus of NIH 3T3 cells. importantly, the NIH 3T3 cell line used lacks the gene for Arf. […] A covalently bound fluorescent label was used to detect Hdm2 fragments instead of immuno fluorescence to avoid nonspecific background staining and staining variability due to differential antibody reactivity. […]

The source of these data is patent US20020045192A1, “Arf and HDM2 interaction domains and methods of use thereof” (St. Jude Children's Research Hospital, priority 2001, published 2002).

“Also recorded” adds a separate entry of the source.

T2 sequence (Q00987 210-275): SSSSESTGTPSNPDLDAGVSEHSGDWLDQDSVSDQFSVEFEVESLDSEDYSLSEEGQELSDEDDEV
T1 sequence (Q00987 210-304): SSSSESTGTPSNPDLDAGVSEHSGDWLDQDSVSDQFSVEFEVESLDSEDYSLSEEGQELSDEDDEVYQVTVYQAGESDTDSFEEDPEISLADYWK

On to “mArfN37: N-terminal fragment of mouse p19^Arf corresponding to residues 1-37 (MGRRFLVTVRIQRAGRPLQERVFLVKFVRSRRPRTAS)”, for which the “induction of β-strand secondary structure when mixed with Hdm2 210-304 (CD)” value (“induction of β-strand secondary structure … (CD)” for short) in experiment [1] was “striking transition from random conformations to β-strand secondary structure”. In addition, the “induction of β-strand assembly when mixed with Hdm2 210-275 (CD)” value (shortened to “induction of β-strand assembly”) in experiment [2] is recorded as “striking transition from random conformations to β-strand secondary structure”.

Turning to “human A1 (1-14): Peptide containing the human Arf motif A1, residues 1-14 (MVRRFLVTLRIRRA)”, the “induction of β-strand secondary structure … (CD)” value in experiment [1] was “produce the random-to-β-strand structure transition”. In experiment [2], the “induction of β-strand assembly” value was “interaction”.

On to “human A2 (16-30): Peptide containing the human Arf motif A2, residues 16-30 (GPPRVRVFVVHIPRL)”, for which the “induction of β-strand secondary structure … (CD)” value in experiment [1] is recorded as “produce the random-to-β-strand structure transition”. The “induction of β-strand assembly” value in experiment [2] is on record as “fail to induce β-strand assembly”.

On to “Hdm2 210-304: Fragment of Hdm2 corresponding to residues 210-304 of SEQ ID NO:8”, for which, in experiment [3] (His-mArfN37 captured by covalently linked His antibody), the “binding to His-tagged mArfN37 immobilized on the SPR biosensor surface” value was “bind tightly”. For the same substance, in experiment [4], the “localization of Texas Red labeled Hdm2 construct in cells that did not express Arf” value is “evenly dispersed in the nucleoplasm” and the “localization of Texas Red labeled Hdm2 construct when GFP-p19^Arf is expressed” value was “co-localized within nucleoli; also recorded: nucleolar localization”.

With “mouse A2 (16-30): Peptide corresponding to the mouse Arf motif A2, residues 16-30 (RPLQERVFLVKFVRS)”, the “induction of β-strand secondary structure … (CD)” value in experiment [1] was “induce the transition from random conformations to β-strand secondary structure”. Moreover, the “induction of β-strand assembly” value in experiment [2] is listed as “fail to induce β-strand assembly”.

For the substance “residues 290-304 of SEQ ID NO:8: short synthetic Hdm2 peptide containing residues 290-304 of SEQ ID NO:8 (SFEEDPEISLADYWK; listed as Homo sapiens)”, the “relative binding affinity for mArfN37 (SPR)” value in experiment [3] (short synthetic Hdm2 peptides, 15 amino acids) is “modest affinity”.

With “mouse A1 (1-14): Peptide corresponding to the mouse Arf motif A1, residues 1-14 (MGRRFLVTVRIQRA)”, in experiment [1], the “induction of β-strand secondary structure … (CD)” value is “induce the transition from random conformations to β-strand secondary structure”. In addition, the “induction of β-strand assembly” value in experiment [2] was “interaction”.

As for “Hdm2 277-491: Texas Red labeled Hdm2 deletion construct containing residues 277-491”, in experiment [4], the “localization of Texas Red labeled Hdm2 construct when GFP-p19^Arf is expressed” value is listed as “nucleolar localization”.
